Target: T1, PDZ1/2 domain
T1 construct: domain: PDZ1/2; also called PDZ1/2 protein
Experiment: SPR, Biacore 3000; PDZ1/2 amine-coupled to the chip, peptide as analyte, 1:1 binding model
Procedure: The immobile phase molecule (ligand) was PDZ1/2 protein with a molecular weight of approximately 20 kD at a concentration of 2 mg/ml. The mobile phase molecule (analyte) was a polypeptide to be screened with a molecular weight of approximately 2 kD at a concentration of 10 mg/ml. The CMS chip was used for fixation using a Biacore 3000 instrument. The electrophoresis buffer was PBS plus 0.005% Tween 20. Fixation was carried out using an amino coupling method. The concentration of the ligand was 10 μg/ml. The fixation buffer was 10 mM sodium acetate, pH 4.0. Fixed amount was 1400 RU, which was fixed to flow cell 2. The used flow rate was 10 μl/ml and the ligand was loaded for 1 minute. 10 mM Gly at pH 2.0+2.5 was used as a regenerant. Regeneration was carried out at a flow rate of 30 μl/min. The loading time was 30 s.

T1 sequence (P78352 65-246): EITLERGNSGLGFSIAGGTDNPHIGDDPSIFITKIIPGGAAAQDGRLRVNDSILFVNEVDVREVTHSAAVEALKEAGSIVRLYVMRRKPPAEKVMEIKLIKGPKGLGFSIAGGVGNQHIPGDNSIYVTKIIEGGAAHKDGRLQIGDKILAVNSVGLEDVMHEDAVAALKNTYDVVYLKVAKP

With YGRKKRRQRRRYEKLSSIESDV [chimeric peptide YE-NA-1] as the binder, how does the Kd read?
The Kd was 54.4 nM.

Source: US20190134143A1 (BIOCELLS BEIJING BIOTECH, published 2019)
